Experimental findings from PMC6625990 (2019) are described below.

No end group written: not given here. *: point of attachment. Biotin = O=C1N[C@H]2[C@H](CS[C@H]2CCCCC(=O)*)N1

First the molecules themselves.
T1: bovine Ric8A1–492 (bovine, UniProt Q5E9J8 1-492)
T1 chain: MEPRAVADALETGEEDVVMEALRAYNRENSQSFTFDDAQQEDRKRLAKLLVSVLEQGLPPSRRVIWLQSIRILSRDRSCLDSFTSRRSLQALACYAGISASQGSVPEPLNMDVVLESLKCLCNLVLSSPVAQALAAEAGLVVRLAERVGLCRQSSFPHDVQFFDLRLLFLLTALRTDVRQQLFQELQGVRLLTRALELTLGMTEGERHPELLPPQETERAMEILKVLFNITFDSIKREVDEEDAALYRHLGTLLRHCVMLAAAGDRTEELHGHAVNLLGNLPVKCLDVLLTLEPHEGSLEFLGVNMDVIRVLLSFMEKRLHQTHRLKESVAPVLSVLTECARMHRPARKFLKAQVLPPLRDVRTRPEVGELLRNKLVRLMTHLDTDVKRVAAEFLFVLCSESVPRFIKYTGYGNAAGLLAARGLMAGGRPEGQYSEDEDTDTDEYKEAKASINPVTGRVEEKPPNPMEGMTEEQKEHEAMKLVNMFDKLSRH

The experiment deals with T1, bovine Ric8A1–492. As to the kind of experiment: BLI.
Broadly, the Kd is the free concentration of one partner at which half of the binding sites on the other are occupied at equilibrium, for simple one-to-one binding. Molecule Biotin-NDCRDIIQRMHLRQYELL [Gαs363–380] registered a Kd of 4.4 µM.
The molecule Biotin-NDCRDIIIRMNLRQCGLF (cysteine pairing not given here) [peptide C2] showed a Kd of 0.063 µM.
Turning to Biotin-NDCRDIIQRMHLRQCGLF (cysteine pairing not given here) [peptide C1], the affinity, expressed as Kd, was 4.7 µM.
